Values quoted from earlier work as cited in patent US10294487B2, “Methods and compositions involving ALS variants with native substrate preference” (E I DU PONT DE NEMOURS AND COMPANY, priority 2012, dated 2019).

What was measured:
ALS [1] = conditions: cited from earlier work; for Resistance pattern, I50 fold increase: IEt: imazethapyr; for Resistance pattern, I50 fold increase: SU: sulfonylurea(s); for Resistance pattern, I50 fold increase: IM: imidazolinone(s)
ALS [2] = conditions: cited from earlier work; for Kinetic parameters: Km / Kinetic parameters: kcat: pyruvate reaction

Molecule	Resistance pattern, I50 fold increase: IEt (ALS [1])	Resistance pattern, I50 fold increase: SU (ALS [1])	Kinetic parameters: Km (ALS [2])	Kinetic parameters: kcat (ALS [2])	Resistance pattern, I50 fold increase: IM (ALS [1])	Resistance pattern, I50 fold increase: IP (ALS [1]; IP (abbreviation not defined))	Kinetic parameters: Kc for FAD (ALS [2]; cofactor activation constant, flavin adenine dinucleotide)	Kinetic parameters: Kc for TPP (ALS [2]; cofactor activation constant, thiamin pyrophosphate)
P192S: Site-directed mutation in S. cerevisiae ALS; position P197, 178 (protein, UniProt P07342 91-687, looked up, variant P192S) Acetolactate synthase …: GLTGGQIFNEMMSRQNVDTVFGYPGGAILPVYDAIHNSDKFNFVLPKHEQGAGHMAEGYARASGKPGVVLVTSGPGATNVVTPMADAFADGIPMVVFTGQVSTSAIGTDAFQEADVVGISRSCTKWNVMVKSVEELPLRINEAFEIATSGRPGPVLVDLPKDVTAAILRNPIPTKTTLPSNALNQLTSRAQDEFVMQSINKAADLINLAKKPVLYVGAGILNHADGPRLLKELSDRAQIPVTTTLQGLGSFDQEDPKSLDMLGMHGCATANLAVQNADLIIAVGARFDDRVTGNISKFAPEARRAAAEGRGGIIHFEVSPKNINKVVQTQIAVEGDATTNLGKMMSKIFPVKERSEWFAQINKWKKEYPYAYMEETPGSKIKPQTVIKKLSKVANDTGRHVIVTTGVGQHQMWAAQHWTWRNPHTFITSGGLGTMGYGLPAAIGAQVAKPESLVIDIDGDASFNMTLTELSSAVQAGTPVKILILNNEEQGMVTQWQSLFYEHRYSHTHQLNPDFIKLAEAMGLKGLRVKKQEELDAKLKEFVSTKGPVLLEVEVDKKVPVLPMVAGGSGLDEFINFDPEVERQQTELRHKRTGGKH	IEt, 10 fold	SUs, 400-2000 fold	Km, 75 % wt	kcat, 25 % wt				
K251T: Site-directed mutation in S. cerevisiae ALS; position K256, 237 (protein, UniProt P07342 91-687, looked up, variant K251T) Acetolactate synthase …: GLTGGQIFNEMMSRQNVDTVFGYPGGAILPVYDAIHNSDKFNFVLPKHEQGAGHMAEGYARASGKPGVVLVTSGPGATNVVTPMADAFADGIPMVVFTGQVPTSAIGTDAFQEADVVGISRSCTKWNVMVKSVEELPLRINEAFEIATSGRPGPVLVDLPTDVTAAILRNPIPTKTTLPSNALNQLTSRAQDEFVMQSINKAADLINLAKKPVLYVGAGILNHADGPRLLKELSDRAQIPVTTTLQGLGSFDQEDPKSLDMLGMHGCATANLAVQNADLIIAVGARFDDRVTGNISKFAPEARRAAAEGRGGIIHFEVSPKNINKVVQTQIAVEGDATTNLGKMMSKIFPVKERSEWFAQINKWKKEYPYAYMEETPGSKIKPQTVIKKLSKVANDTGRHVIVTTGVGQHQMWAAQHWTWRNPHTFITSGGLGTMGYGLPAAIGAQVAKPESLVIDIDGDASFNMTLTELSSAVQAGTPVKILILNNEEQGMVTQWQSLFYEHRYSHTHQLNPDFIKLAEAMGLKGLRVKKQEELDAKLKEFVSTKGPVLLEVEVDKKVPVLPMVAGGSGLDEFINFDPEVERQQTELRHKRTGGKH		SU, 10-100 fold	65 % wt	1 % wt	IMs, 10-150 fold			
W586L: Site-directed mutation in S. cerevisiae ALS; position W574, 555 (protein, UniProt P07342 91-687, looked up, variant W586L) Acetolactate synthase …: GLTGGQIFNEMMSRQNVDTVFGYPGGAILPVYDAIHNSDKFNFVLPKHEQGAGHMAEGYARASGKPGVVLVTSGPGATNVVTPMADAFADGIPMVVFTGQVPTSAIGTDAFQEADVVGISRSCTKWNVMVKSVEELPLRINEAFEIATSGRPGPVLVDLPKDVTAAILRNPIPTKTTLPSNALNQLTSRAQDEFVMQSINKAADLINLAKKPVLYVGAGILNHADGPRLLKELSDRAQIPVTTTLQGLGSFDQEDPKSLDMLGMHGCATANLAVQNADLIIAVGARFDDRVTGNISKFAPEARRAAAEGRGGIIHFEVSPKNINKVVQTQIAVEGDATTNLGKMMSKIFPVKERSEWFAQINKWKKEYPYAYMEETPGSKIKPQTVIKKLSKVANDTGRHVIVTTGVGQHQMWAAQHWTWRNPHTFITSGGLGTMGYGLPAAIGAQVAKPESLVIDIDGDASFNMTLTELSSAVQAGTPVKILILNNEEQGMVTQLQSLFYEHRYSHTHQLNPDFIKLAEAMGLKGLRVKKQEELDAKLKEFVSTKGPVLLEVEVDKKVPVLPMVAGGSGLDEFINFDPEVERQQTELRHKRTGGKH		SUs, 1000-10000 fold	Km, 80 % wt	kcat, 450 % wt	IMs, 8-70 fold			
A200V: Site-directed mutation in S. cerevisiae ALS; position A205, 186 (protein, UniProt P07342 91-687, looked up, variant A200V) Acetolactate synthase …: GLTGGQIFNEMMSRQNVDTVFGYPGGAILPVYDAIHNSDKFNFVLPKHEQGAGHMAEGYARASGKPGVVLVTSGPGATNVVTPMADAFADGIPMVVFTGQVPTSAIGTDVFQEADVVGISRSCTKWNVMVKSVEELPLRINEAFEIATSGRPGPVLVDLPKDVTAAILRNPIPTKTTLPSNALNQLTSRAQDEFVMQSINKAADLINLAKKPVLYVGAGILNHADGPRLLKELSDRAQIPVTTTLQGLGSFDQEDPKSLDMLGMHGCATANLAVQNADLIIAVGARFDDRVTGNISKFAPEARRAAAEGRGGIIHFEVSPKNINKVVQTQIAVEGDATTNLGKMMSKIFPVKERSEWFAQINKWKKEYPYAYMEETPGSKIKPQTVIKKLSKVANDTGRHVIVTTGVGQHQMWAAQHWTWRNPHTFITSGGLGTMGYGLPAAIGAQVAKPESLVIDIDGDASFNMTLTELSSAVQAGTPVKILILNNEEQGMVTQWQSLFYEHRYSHTHQLNPDFIKLAEAMGLKGLRVKKQEELDAKLKEFVSTKGPVLLEVEVDKKVPVLPMVAGGSGLDEFINFDPEVERQQTELRHKRTGGKH		SUs, 300-700 fold	100 % wt	20 % wt	IMs, 10-100 fold			
D379N: Site-directed mutation in S. cerevisiae ALS; position D376, 357 (protein, UniProt P07342 91-687, looked up, variant D379N) Acetolactate synthase …: GLTGGQIFNEMMSRQNVDTVFGYPGGAILPVYDAIHNSDKFNFVLPKHEQGAGHMAEGYARASGKPGVVLVTSGPGATNVVTPMADAFADGIPMVVFTGQVPTSAIGTDAFQEADVVGISRSCTKWNVMVKSVEELPLRINEAFEIATSGRPGPVLVDLPKDVTAAILRNPIPTKTTLPSNALNQLTSRAQDEFVMQSINKAADLINLAKKPVLYVGAGILNHADGPRLLKELSDRAQIPVTTTLQGLGSFDQEDPKSLDMLGMHGCATANLAVQNADLIIAVGARFDNRVTGNISKFAPEARRAAAEGRGGIIHFEVSPKNINKVVQTQIAVEGDATTNLGKMMSKIFPVKERSEWFAQINKWKKEYPYAYMEETPGSKIKPQTVIKKLSKVANDTGRHVIVTTGVGQHQMWAAQHWTWRNPHTFITSGGLGTMGYGLPAAIGAQVAKPESLVIDIDGDASFNMTLTELSSAVQAGTPVKILILNNEEQGMVTQWQSLFYEHRYSHTHQLNPDFIKLAEAMGLKGLRVKKQEELDAKLKEFVSTKGPVLLEVEVDKKVPVLPMVAGGSGLDEFINFDPEVERQQTELRHKRTGGKH		SUs, 200-900 fold	Km, 133 % wt	kcat, 140 % wt	hypersensitivity			
M354V: Site-directed mutation in S. cerevisiae ALS; position M351, 332 (protein, UniProt P07342 91-687, looked up, variant M354V) Acetolactate synthase …: GLTGGQIFNEMMSRQNVDTVFGYPGGAILPVYDAIHNSDKFNFVLPKHEQGAGHMAEGYARASGKPGVVLVTSGPGATNVVTPMADAFADGIPMVVFTGQVPTSAIGTDAFQEADVVGISRSCTKWNVMVKSVEELPLRINEAFEIATSGRPGPVLVDLPKDVTAAILRNPIPTKTTLPSNALNQLTSRAQDEFVMQSINKAADLINLAKKPVLYVGAGILNHADGPRLLKELSDRAQIPVTTTLQGLGSFDQEDPKSLDMLGVHGCATANLAVQNADLIIAVGARFDDRVTGNISKFAPEARRAAAEGRGGIIHFEVSPKNINKVVQTQIAVEGDATTNLGKMMSKIFPVKERSEWFAQINKWKKEYPYAYMEETPGSKIKPQTVIKKLSKVANDTGRHVIVTTGVGQHQMWAAQHWTWRNPHTFITSGGLGTMGYGLPAAIGAQVAKPESLVIDIDGDASFNMTLTELSSAVQAGTPVKILILNNEEQGMVTQWQSLFYEHRYSHTHQLNPDFIKLAEAMGLKGLRVKKQEELDAKLKEFVSTKGPVLLEVEVDKKVPVLPMVAGGSGLDEFINFDPEVERQQTELRHKRTGGKH	90 fold	SUs, 5-85 fold	Km, 60 % wt	kcat, 50 % wt		10 fold		
A122V: Site-directed mutation in A. thaliana ALS; position A122, 103 (protein, UniProt P17597 56-670, looked up, variant A122V) Acetolactate synthase, …: SSSPSSISAVLNTTTNVTTTPSPTKPTKPETFISRFAPDQPRKGADILVEALERQGVETVFAYPGGVSMEIHQALTRSSSIRNVLPRHEQGGVFAAEGYARSSGKPGICIATSGPGATNLVSGLADALLDSVPLVAITGQVPRRMIGTDAFQETPIVEVTRSITKHNYLVMDVEDIPRIIEEAFFLATSGRPGPVLVDVPKDIQQQLAIPNWEQAMRLPGYMSRMPKPPEDSHLEQIVRLISESKKPVLYVGGGCLNSSDELGRFVELTGIPVASTLMGLGSYPCDDELSLHMLGMHGTVYANYAVEHSDLLLAFGVRFDDRVTGKLEAFASRAKIVHIDIDSAEIGKNKTPHVSVCGDVKLALQGMNKVLENRAEELKLDFGVWRNELNVQKQKFPLSFKTFGEAIPPQYAIKVLDELTDGKAIISTGVGQHQMWAAQFYNYKKPRQWLSSGGLGAMGFGLPAAIGASVANPDAIVVDIDGDGSFIMNVQELATIRVENLPVKVLLLNNQHLGMVMQWEDRFYKANRAHTFLGDPAQEDEIFPNMLLFAAACGIPAARVTKKADLREAIQTMLDTPGPYLLDVICPHQEHVLPMIPSGGTFNDVITEGDGRIKY		SUs, 4 fold	Km, 160 % wt	kcat, 25 % wt	IMs, 1000-2000 fold		Kc for FAD, 400 % wt	Kc for TPP, 2000 % wt
